Test results as given in the supplement of paper PMC10724198.
± gives the standard deviation of the averaged measurements.

Test system: Saccharomyces cerevisiae
Test: protein stability index of tFT-peptide fusion (C-terminal peptide) (PSI (0-1 scale)); higher = more stable (slower turnover)
Details: genetic background: wild type; temperature: 30 C
Protocol: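 Multiplexed protein stability (MPS) profiling in S. cerevisiae. Random 12-aa peptides (tFT-X12 library) are fused to the C-terminus of a sfGFP-mCherry tandem fluorescent timer, after mCherry and a GGGS linker. Cells are FACS-sorted into 8 mCherry/sfGFP bins and deep-sequenced. The protein stability index (PSI) is the read-weighted bin average, scaled from 0 (unstable) to 1 (stable). Only peptides with >10 reads are reported; cells were grown at 30 °C in SC-His with glucose.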
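Also: PSI is a weighted mean of sequencing reads over stability bins, variants kept only with over 10 reads, mCherry proximal and sfGFP distal, peptide attached via GGGS linker.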

Sequence | protein stability index
GRQEISVGGRRM | 0.7007 ± 0.00071
GRRDGRWGQIVR | 0.679 ± 0.0097
GRRRVGAVVEGV | 0.641 ± 0.01
GRRVQRGQARGA | 0.66 ± 0.024
GRRWVGAVVEGV | 0.684 ± 0.043
GRSASDTRGLGL | 0.672 ± 0.13
GRSDAPVPFDPP | 0.561 ± 0.0098
GRSGWAWFTCRC | 0.67 ± 0.059
GRTGETGRIGRG | 0.6512 ± 0.0023
GRTWCFVGARPS | 0.698 ± 0.17
GRVRETRCISYG | 0.652 ± 0.11
GRVRIFDCVVRL | 0.753 ± 0.011
GRVRLGMKETLS | 0.713 ± 0.016
GRVSAVEFWFCF | 0.615 ± 0.04
GRWGGWGGRGCG | 0.696 ± 0.023
GRYRNDVAVLNF | 0.683 ± 0.087
GSAHSFTLLVLP | 0.742 ± 0.043
GSDMRADGRIER | 0.673 ± 0.039
GSEPCPRPCGPG | 0.692 ± 0.048
GSFLGTSFKSEY | 0.666 ± 0.029
GSFMECIREGIF | 0.718 ± 0.058
GSGAICAFGFWC | 0.6599 ± 0.0041
GSGDFWRLCISL | 0.785 ± 0.1
GSGRRGLMGRKS | 0.728 ± 0.011
GSGVVCTMGWRL | 0.6856 ± 0.0068
GSHRSTWGLVPL | 0.696 ± 0.067

Sequence | protein stability index
GSLCAVWWCWRG | 0.6372 ± 0.0052
GSLRLASAHGLV | 0.729 ± 0.02
GSPMRKHVTLLP | 0.808 ± 0.12
GSPPHTLPLHGR | 0.67 ± 0.03
GSRCSEAQDRSD | 0.713 ± 0.015
GSRFCPHVGICI | 0.657 ± 0.019
GSSPLLFSLLES | 0.751 ± 0.076
GSSRMACYCKHS | 0.644 ± 0.051
GSSSSLDVFVVF | 0.699 ± 0.085
GSTLGGMAWGAR | 0.682 ± 0.014
GSTLWGMAWGAR | 0.694 ± 0.017
GSTRWGSAEGRG | 0.662 ± 0.21
GSVCCLSLHCFV | 0.62 ± 0.033
GSYIPSPKKNKC | 0.7086 ± 0.0029
GSYRSSPFKDPK | 0.686 ± 0.037
GTDEWKRKYNTP | 0.695 ± 0.045
GTDSFQTTRRLI | 0.663 ± 0.022
GTGPPPSPPSLP | 0.683 ± 0.091
GTHFRPAREERV | 0.708 ± 0.039
GTHGQAQRVAGQ | 0.7248 ± 0.0061
GTIEFNKIEDFW | 0.715 ± 0.039
GTLAAGGGVPMS | 0.734 ± 0.034
GTLARFLTHFNP | 0.666 ± 0.048
GTLRLLYLKTSK | 0.651 ± 0.009
GTLSLAACLSEN | 0.657 ± 0.077
GTRAVSKLNPDA | 0.701 ± 0.02

Sequence | protein stability index
GTRRHSFCSGTG | 0.703 ± 0.054
GTSERKVLNRKR | 0.764 ± 0.015
GTSVGVRRKGVK | 0.708 ± 0.033
GTTLDEPGESGR | 0.621 ± 0.023
GVAAGPAVRVLT | 0.669 ± 0.032
GVAGGLLLRGGR | 0.673 ± 0.13
GVAYSIVKKKKK | 0.684 ± 0.036
GVCTGSFVFYLT | 0.686 ± 0.016
GVEAGMGRTLWL | 0.792 ± 0.099
GVEGAVGGRRGA | 0.703 ± 0.029
GVEGLGAFVTVQ | 0.702 ± 0.0089
GVENAHLFYLYL | 0.63579 ± 0.00058
GVEVCEGDGPLK | 0.669 ± 0.015
GVGGGSSWVGYG | 0.912 ± 0.063
GVGGGVRLVVSR | 0.633 ± 0.052
GVGGRVRDALGM | 0.68 ± 0.066
GVGLIGVLTCGL | 0.636 ± 0.02
GVGLVLLGVVSG | 0.513 ± 0.025
GVGRGCVLNGGG | 0.743 ± 0.018
GVGVWQWERGRG | 0.789 ± 0.1
GVICALPPVVGR | 0.685 ± 0.071
GVLGCNDGSVVE | 0.663 ± 0.059
GVLRPVWVLGGS | 0.624 ± 0.017
GVLSLFLLDTSQ | 0.7376 ± 0.0061
GVLVESGSVESR | 0.744 ± 0.12
GVPALLVGIDLV | 0.668 ± 0.027

Sequence | protein stability index
GVPFSLGPPPSR | 0.669 ± 0.022
GVPVVCGPPPFL | 0.748 ± 0.091
GVQEGGGGARGG | 0.633 ± 0.023
GVRAPPSPVSGL | 0.6711 ± 0.0066
GVRGGGAVGGLR | 0.65 ± 0.056
GVRHPRLMFSRS | 0.687 ± 0.02
GVRIGYCIVRDV | 0.647 ± 0.022
GVRIVRRGLRRV | 0.731 ± 0.013
GVRKGEESGVGW | 0.717 ± 0.0085
GVSAGGAGLGGS | 0.773 ± 0.0031
GVSAGLRGGGGA | 0.651 ± 0.022
GVSHKKGCPWLG | 0.641 ± 0.043
GVSKALAAAVDA | 0.6874 ± 0.0061
GVSVSPVVHFFL | 0.73 ± 0.062
GVSWVGGRVFGG | 0.6964 ± 0.0051
GVVGGGVQGGMG | 0.624 ± 0.0046
GVVRTSWGEALR | 0.7065 ± 0.0061
GVVRWGRVVGCF | 0.631 ± 0.084
GVWQGVGVRGWG | 0.83 ± 0.096
GWCALGVRAILY | 0.651 ± 0.0097
GWCRVFLNFLMW | 0.61142 ± 0.00012
GWCVGHSVLVVE | 0.618 ± 0.021
GWGCARRRGGRV | 0.683 ± 0.015
GWGGEGQNGSEG | 0.638 ± 0.019
GWGGFQFECGWV | 0.651 ± 0.059
GWGGGSMDLRDR | 0.702 ± 0.011

Sequence | protein stability index
GWGGSIGEEWGG | 0.687 ± 0.022
GWGPWGRVGRGG | 0.688 ± 0.032
GWLGGGGVVWWG | 0.718 ± 0.017
GWMLGAVRRGVI | 0.694 ± 0.032
GWMSGTPEFLGS | 0.707 ± 0.025
GWPVSICGSTQN | 0.754 ± 0.058
GWQLWGFCLSGP | 0.637 ± 0.032
GWRGGGSDGGLR | 0.718 ± 0.086
GWSCRGVGGGLG | 0.708 ± 0.045
GWVGGCGCGRGI | 0.694 ± 0.034
GWVRCGGGAGVG | 0.622 ± 0.056
GWVWILGRGRGR | 0.637 ± 0.044
GWWGGCRSGVPE | 0.672 ± 0.069
GYADDEEEYVTL | 0.737 ± 0.023
GYETTQSGFLSS | 0.5887 ± 0.0022
GYLVPLPSSGSS | 0.661 ± 0.057
GYNTSMHVQYQT | 0.764 ± 0.02
GYSFWSCVAFFS | 0.628 ± 0.0068
GYSPLHPILLGL | 0.577 ± 0.013
HAEREDTESQTR | 0.714 ± 0.05
HAKVFLMGCSYV | 0.692 ± 0.072
HALSVDPAFKQS | 0.66 ± 0.05
HATPPPLPSPPL | 0.71976 ± 0.0003
HCLLPLTTRRGR | 0.7 ± 0.026
HDAKIGTSTCWV | 0.654 ± 0.024
HDGPYPALLATK | 0.606 ± 0.069

Sequence | protein stability index
HDHRTLMRQPTR | 0.697 ± 0.037
HDMTGARKTHIA | 0.676 ± 0.023
HDRIHWDLDLSE | 0.617 ± 0.041
HEGHVWGIRGTG | 0.683 ± 0.11
HEKTGNNHKRGH | 0.628 ± 0.19
HERPVVLYGCTS | 0.637 ± 0.02
HFIDFVVVSFSI | 0.548 ± 0.095
HFSLCSNRSNPP | 0.646 ± 0.015
HFSTSFYSSAFR | 0.631 ± 0.026
HGAEAWPDVGPG | 0.639 ± 0.021
HGGEPHPSFGFS | 0.697 ± 0.062
HGIGRDTSEHGR | 0.645 ± 0.025
HGLGSWGTFLGV | 0.655 ± 0.021
HGPGGFRAGTGE | 0.724 ± 0.027
HGRSGGGKGAER | 0.674 ± 0.038
HGSDLSILRIEI | 0.722 ± 0.07
HHCGGRVLGAGG | 0.7073 ± 0.0056
HHPTTQRLSVIH | 0.742 ± 0.042
HHRRRRTTDVSL | 0.75 ± 0.049
HIEGRKHKDVAM | 0.668 ± 0.062
HKVETHQIIQIK | 0.726 ± 0.043
HLFAISGGKERI | 0.6966 ± 0.0039
HLFVCGNGVSAT | 0.684 ± 0.029
HLGHPSSRPSCL | 0.72 ± 0.057
HLGQPRPSCPLF | 0.662 ± 0.088
